Changes are numbered by the printed parent chain.

Data on 27 molecules can be found in patent US20040010124A1 (MacroGenics, published 2004).

Sequences and labels used below:
B1: hu3G8VH-1/hu3G8VL-1 (antibody, human IgG1, kappa)
heavy: not shown
light: DIVMTQSPDSLAVSLGERATINCKASQSVDFDGDSFMNWYQQKPGQPPKLLIYTTSNLESGVPDRFSGSGSGTDFTLTISSLQAEDVAVYYCQQSNEDPYTFGQGTKLEIKRTVAAPSVFIFPPSDEQLKSGTASVVCLLNNFYPREAKVQWKVDNALQSGNSQESVTEQDSKDSTYSLSSTLTLSKADYEKHKVYACEVTHQGLSSPVTKSFNRGEC
notes: HEK-293; also called Hu3G8-1.1
B2: hu3G8VH-3/hu3G8VL-1 (antibody, V domains shown)
VH: QVTLRESGPALVKPTQTLTLTCTFSGFSLRTSGMGVGWIRQPPGKALEWLAHIWWDDDKRYNPALKSRLTISKDTSKNQVVLTMTNMDPVDTATYYCARINPAWFAYWGQGTLVTVSS
VL: DIVMTQSPDSLAVSLGERATINCKASQSVDFDGDSFMNWYQQKPGQPPKLLIYTTSNLESGVPDRFSGSGSGTDFTLTISSLQAEDVAVYYCQQSNEDPYTFGQGTKLEIK
notes: Human Cγ1/Cκ constant regions; HEK-293
B3: hu3G8VH-42/hu3G8VL-1 (antibody, V domains shown)
VH: B2 VH with V2I, R5K, A10T, R30S, M34V, N62S, A64S, S72T
VL: B2 VL
notes: as for B2
B4: hu3G8VH-8/hu3G8VL-1 (antibody, V domains shown)
VH: B2 VH with R30S, W104Y
VL: B2 VL
notes: as for B2
B5: hu3G8VH-25/hu3G8VL-1 (antibody, V domains shown)
VH: B2 VH with R30S, M34V, N62S, A64S, R99H, W104Y
VL: B2 VL
notes: as for B2
B6: hu3G8VH-45/hu3G8VL-1 (antibody, V domains shown)
VH: QITLKESGPTLVKPTQTLTLTCTFSGFSLSTSGVGVGWIRQPPGKALEWLAHIWWDDDKRYSPSLKSRLTITKDTSKNQVVLTMTNMDPVDTATYYCAQINPAYFDYWGQGTLVTVSS
VL: B2 VL
notes: as for B2
B7: hu3G8VH-37/hu3G8VL-1 (antibody, V domains shown)
VH: B6 VH with H52L, T72S, Q99K, D106A
VL: B2 VL
notes: as for B2
B8: hu3G8VH-6/hu3G8VL-1 (antibody, V domains shown)
VH: B2 VH with R30S, M34V, A106D
VL: B2 VL
notes: as for B2
B9: hu3G8VH-27/hu3G8VL-1 (antibody, V domains shown)
VH: B6 VH with I2V, K5R, T10A, T72S, Q99K
VL: B2 VL
notes: as for B2
B10: hu3G8VH-28/hu3G8VL-1 (antibody, V domains shown)
VH: B6 VH with I2V, K5R, T10A, T72S, Q99A
VL: B2 VL
notes: as for B2
B11: hu3G8VH-16/hu3G8VL-1 (antibody, V domains shown)
VH: B2 VH with R30S, R99K
VL: B2 VL
notes: as for B2
B12: hu3G8VH-4/hu3G8VL-1 (antibody, V domains shown)
VH: B2 VH with R30S, R99Q, A106D
VL: B2 VL
notes: as for B2
B13: hu3G8VH-30/hu3G8VL-1 (antibody, V domains shown)
VH: B6 VH with I2V, K5R, T10A, T72S
VL: B2 VL
notes: as for B2
B14: hu3G8VH-12/hu3G8VL-1 (antibody, V domains shown)
VH: B2 VH with R30S, N62S, A64S
VL: B2 VL
notes: as for B2
B15: hu3G8VH-29/hu3G8VL-1 (antibody, V domains shown)
VH: B6 VH with I2V, K5R, T10A, T72S, Q99H
VL: B2 VL
notes: as for B2
B16: hu3G8VH-23/hu3G8VL-1 (antibody, V domains shown)
VH: B6 VH with I2V, K5R, T10A, T72S, Q99K, D106A
VL: B2 VL
notes: as for B2
B17: hu3G8VH-24/hu3G8VL-1 (antibody, V domains shown)
VH: B6 VH with I2V, K5R, T10A, T72S, Q99A, D106A
VL: B2 VL
notes: as for B2
B18: hu3G8VH-44/hu3G8VL-1 (antibody, V domains shown)
VH: B6 VH with Q99H
VL: B2 VL
notes: as for B2
B19: hu3G8VH-14/hu3G8VL-1 (antibody, V domains shown)
VH: B2 VH with R30S, D56N
VL: B2 VL
notes: as for B2
B20: hu3G8VH-36/hu3G8VL-1 (antibody, V domains shown)
VH: B6 VH with H52L, T72S
VL: B2 VL
notes: as for B2
B21: hu3G8VH-18/hu3G8VL-1 (antibody, V domains shown)
VH: B2 VH with R30S, R99H
VL: B2 VL
notes: as for B2
B22: hu3G8VH-5/hu3G8VL-1 (antibody, V domains shown)
VH: B2 VH with R30S, R99Q
VL: B2 VL
notes: Human Cγ1/Cκ constant regions; HEK-293; also called Hu3G8-5.1; h3G8 5.1
B23: hu3G8VH-19/hu3G8VL-1 (antibody, V domains shown)
VH: B2 VH with R30S, R99Q, W104Y
VL: B2 VL
notes: as for B2
B24: hu3G8VH-43/hu3G8VL-1 (antibody, V domains shown)
VH: B6 VH with Q99R, D106A
VL: B2 VL
notes: as for B2
B25: hu3G8VH-17/hu3G8VL-1 (antibody, V domains shown)
VH: B2 VH with R30S, R99A
VL: B2 VL
notes: as for B2
B26: hu3G8VH-40/hu3G8VL-1 (antibody, V domains shown)
VH: B6 VH with W54F, T72S, Q99R, Y104W, D106A
VL: B2 VL
notes: as for B2
B27: chimeric antibody ch3G8 (ch3G8VH/ch3G8VL) (antibody, V domains shown)
VH: QVTLKESGPGILQPSQTLSLTCSFSGFSLRTSGMGVGWIRQPSGKGLEWLAHIWWDDDKRYNPALKSRLTISKDTSSNQVFLKIASVDTADTATYYCAQINPAWFAYWGQGTLVTVSS
VL: DTVLTQSPASLAVSLGQRATISCKASQSVDFDGDSFMNWYQQKPGQPPKLLIYTTSNLESGIPARFSASGSGTDFTLNIHPVEEEDTATYYCQQSNEDPYTFGGGTKLEIK
notes: Mouse 3G8 VH (FR4 ala to ser) on human Cγ1 and mouse 3G8 VL on human Cκ; also called chimeric 3G8; ch3G8-γ1

T1 sequence (P08637 other isoform, or with tags, fused parts or gaps limits assumed): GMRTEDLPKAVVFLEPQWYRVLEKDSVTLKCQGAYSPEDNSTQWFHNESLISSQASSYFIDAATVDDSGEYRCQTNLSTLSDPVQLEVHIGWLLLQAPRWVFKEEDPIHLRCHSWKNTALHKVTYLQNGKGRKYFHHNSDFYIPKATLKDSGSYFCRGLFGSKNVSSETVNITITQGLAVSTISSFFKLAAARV

One test concerns the target T1, soluble form of human CD16A (sCD16A) (human, UniProt P08637 17-203).
T1 construct: CD16A gene truncated just prior to the transmembrane region, expressed in HEK-293; The last seven residues come from vector pCDNA3.1; also called sFcRIIIa
Briefly: ELISA, sCD16A captured by mAb LNK-16. The method, then: The plate was washed and dilutions of recombinant antibodies starting at 0.5 μg/ml in PBS-T-BSA were then added and incubated for 1 hr at room temp. […] After stopping color development using dilute sulfuric acid, the plate was read at 450 nm.
Take B1: the binding result was “binds”.
On the same count and under the same terms, the result for B2 reads “binds”; that for B3, “binds”; that for B4, “binds”.
Same read-out and setting: the value for B5 was “binds”.
On to B6, for which the binding result is on record as “binds”.
Take B7: the binding result was “binds”.
Regarding B8, the binding result was “binds”.
Still for that read-out and setting: the result for B9 reads “binds”.
On the same count and under the same terms, the result for B10 reads “binds”.
The same measure, in the same setting: the value for B11 was “binds”; that for B12 was “binds”.
B13: the binding result is “binds”.
With B14, the binding result was “binds”.
Still for that read-out and setting: the value for B15 was “binds”; that for B16 was “binds”; that for B17 was “binds”.
The same measure, in the same setting: the value for B18 was “binds”; that for B19 was “binds”; that for B20 was “binds”.
The same measure, in the same setting: the result for B21 reads “binds”.
In the case of B22, the binding result was “binds”.
Same read-out and setting: the result for B23 reads “binds”.
Still for that read-out and setting: the value for B24 was “binds”; that for B25 was “binds”.
Same read-out and setting: the result for B26 reads “binds”.

For a further test, the target named is T1, soluble form of human CD16A (sCD16A). Briefly: in vitro, method not given. The source says:
The same format was used to assay binding of sFcRs to immune complexes (IC) formed on the ELISA plate between ch4-4-20 and FITC-BSA.
After one hour, binding of the soluble receptor to the IC was detected using streptavidin-HRP conjugate and TMB development.
In the case of B27, the binding result is listed as “binds”.
